Source: US20240117066A1 (Memorial Sloan Kettering, published 2024)

B1: 14C5 antibody (antibody, V domains shown)
VH: QVQLKESGPGLVAPSQSLSITCTVSGFSLTSYGVHWVRQPPGKGLEWLGVLWAGGSTDYNSALMSRLSISKDNSKSQVFLKMNSLQTDDTAMYYCARGGLRQVFAYWGQGTLVTVSA
VL: DVLMTQTPLSLPVSLGDQASISCRSSQSIVYSNGNTYLEWYLQKPGQSPKLLIYKVSNRFSGVPDRFSGSGSGTDFTLKISRVEAEDLGVYYCFQGSHVPYTFGGGTKLEMK
B2: 8B1 antibody (antibody, V domains shown)
VH: QIQLVQSGPELKKPGETVKISCKASGYTFTNYGMNWVKQAPGKGLKWMGWINTNTGEPTYAEEFKGRFAFSLETSASTAYLQINNLKNEDTATYFCGDYEFAYWGQGTLVTVSA
VL: DIQMTQSPASLSVSVGETVTITCRASENIYSNLAWYQQKQGKSPQLLVYAATNLADGVPSRFSGSGSGTQYSLKINSLQSEDFGSYYCQHFWGTPWTFGGGTKLEIK
B3: 17C9 antibody (antibody, V domains shown)
VH: EVQLVESGGGLVKPGGSLKLSCAASGFTFSSYAMSWVRQSPEKRLEWVAEISSGGTYTYYPDTVTGRFTISRDNAKNTLYLEMSSLRSEDTAMYYCARDDGFYAWFGYWGQGTLVTVSA
VL: not shown
B4: 11E10 antibody (antibody, V domains shown)
VH: QVQLQQSGPELVKPGASVKMSCKTSGYTFTDYVITWVKQRTGQGLEWIGEIYPRSGNTYYNAKFRGKATLTADKSSNTAYMQLSSLTSEDSAVYFCARGGYYDFDFFAMDYWGQGTSVTVSS
VL: DIVMTQAAPSVPVTPGESVSISCRSSKSLLHSNGNTYLYWFLQRPGQSPQLLIYRMSNLASGVPDRFSGSGSGTAFTLRISRVEAEDVGVYYCMQHLEYPYTFGGGTKLEIK
B5: 6C8 antibody (antibody, V domains shown)
VH: EVQLVESGGGLVQPGGSLKISCAASGFTFTNYGMSWVRQTPDKRLELVATTNSNGGATYYPDSVKGRFTISRDNAKNTLYLQMSSLKSEDTAMYFCTRDRDYYGGSMDYWGQGTSVTVSS
VL: DIVMSQSPSSLAVSVGERVSMSCKSSQSLLYSSDQKNYLAWYQQKPGQSPELLIYWASTRESGVPDRFTGSGSGTDFTLTISSVKAEDLAIYYCQQYYSYPFTFGSGTKLEIK

target: T1, recombinant human uPAR protein (Leu23-Arg303) with a C-terminal 6-his tag (human, UniProt Q03405 23-303); experiment: Biacore (SPR), single cycle kinetics
T1 construct: also called CD87
Method: Six clones 8B1, 11E10, 17C9, 19D7, 6C8, and 14C5 were produced. Next, the binding affinities KD of 8B1, 11E10, 17C9, 19D7, 6C8, and 14C5 antibodies were assessed. The KD values were calculated using the Biacore single cycle kinetics analysis.

T1 sequence (Q03405 other isoform, or with tags, fused parts or gaps): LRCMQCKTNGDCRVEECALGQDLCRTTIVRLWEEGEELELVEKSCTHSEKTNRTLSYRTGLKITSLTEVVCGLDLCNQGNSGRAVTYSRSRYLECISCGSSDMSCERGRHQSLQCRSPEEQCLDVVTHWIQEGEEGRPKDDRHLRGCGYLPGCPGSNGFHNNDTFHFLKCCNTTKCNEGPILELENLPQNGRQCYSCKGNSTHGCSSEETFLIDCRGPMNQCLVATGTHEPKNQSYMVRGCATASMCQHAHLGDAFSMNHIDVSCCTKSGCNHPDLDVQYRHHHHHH

Point of comparison: B3, Kd 18.6 nM. Against it:
- B1 — 2.3-fold higher, 42.4 nM
- B2 — 5.3-fold lower, 3.48 nM
- B4 — 5.1-fold higher, 95.2 nM
- B5 — 2.8-fold lower, 6.61 nM
